Assay results taken from the DeepSol protein solubility set.

Assay: soluble on expression in E. coli; label from the status in PepcDB or PDB records

Sequence | soluble on expression in E. coli
GSFTMDDISPSELKTILHSKRANLYYLQHCRVLVNGGRVEYVTDEGRHSHYWNIPIANTTSLLLGTGTSITQAAMRELARAGVLVGFCGGGGTPLFSANEVDVEVSWLTPQSEYRPTEYLQRWVGFWFDEEKRLVAARHFQRARLERIRHSWLEDRVLRDAGFAVDATALAVAVEDSARALEQAPNHEHLLTEEARLSKRLFKLAAQATRYGEFVRAKRGSGGDPANRFLDHGNYLAYGLAATATWVLGIPHGLAVLHGKTRRGGLVFDVADLIKDSLILPQAFLSAMRGDEEQDFRQACLDNLSRAQALDFMIDTLKDVAQRSTVSA | soluble
GSGMKETAAAKFERQHMDSPDLGTTLLEQYCHRTTIGNFSGPYTYCNTTLDQIGTCWPQSAPGALVERPCPEYFNGIKYNTTRNAYRECLENGTWASRVNYSHCEPILDDFQRKYDLHY | soluble
GSGSAMIEARQVSELSTRIISSVQMLSNAQNEQERKEAGRVLFEQLESLLTHIKELGGESFDSKLLDALESNVQNVINNLAELGVTVERKLWLAKEIDTRVEEMRLLSEELEQLTRTQVQNTSTIAVANVTHIYDLLEANKKDQVYQALDALVEVDLDLTERLHELHLLAFKMLNQIEEARTLTNVDRIQQIQTAFENNLKIMKRRVLAVEDPTRSKQMSQLLTELGKRQVVFTILLQQYENNEQSQQLMQKTLELFSELNSTVNKLVDDSNKTTT | soluble
GSHGLCKNLLQEYAQKMNYAIPLYQCQKVETLGRVTQFTCTVEIGGIKYTGAATRTKKDAEISAGRTALLAIQSDT | soluble
GSHMAITGTIAAIATAIVPQQGSVGIVRVSGSQAIAIAQTLFDAPGKQVWESHRILYGYIRHPQTRQIVDEALLLLMKAPRSYTREDVVEFHCHGGIIAVQQVLQLCLESGARLAQPGEFTLRAFLNGRLDLTQAESIADLVGARSPQAAQTALAGLQGKLAHPIRQLRANCLDILAEIEARIDFEEDLPPLDDEAIISDIENIAAEISQLLATKDKGELLRTGLKVAIVGRPNVGKSSLLNAWSQSDRAIVTDLPGTTRDVVESQLVVGGIPVQVLDTAGIRETSDQVEKIGVERSRQAANTADLVLLTIDAATGWTTGDQEIYEQVKHRPLILVMNKIDLVEKQLITSLEYPENITQIVHTAAAQKQGIDSLETAILEIVQTGKVQAADMDLAINQRQAAALTQAKMSLEQVQATITQQLPLDFWTIDLRGAIQALGEITGEEVTESVLDRIFSRFCIGK | soluble
GSHMASMTGGQQMGRGSDSSNAITIENNTLWTGAKPSANCVIKEGEDSPDCKLTLVLVKNGGLINGYITLMGASEYTNTLFKNNQVTIDVNLAFDNTGQIITYLSSLKSNLNFKDNQNMATGTITSAKGFMPSTTAYPFITYATETLNEDYIYGECYYKSTNGTLFPLKVTVTLNRRMLASGMAYAMNFSWSLNAEEAPETTEVTLITSPFFFSYIREDD | soluble
GSHMDPLMQKIDISENPDKIYFIRREDGTVHRGQVLQSRTTENAAAPDEYYVHYVGLNRRLDGWVGRHRISDNADDLGGITVLPAPPLAPDQ | soluble
GSHMGQLGGEEWTRHGSFVNKPTRGWLHPNDKVMGPGVSYLVRYMGCVEVLQSMRALDFNTRTQVTREAISLVCEAVPGAKGATRRRKPCSRPLSSILGRSNLKFAGMPITLTVSTSSLNLMAADCKQIIANHHMQSISFASGGDPDTAEYVAYVAKDPVNQRACHILECPEGLAQDVISTIGQAFELRFKQYLR | soluble
GSHMHAKVGDYLVVKGTTTERHDQHAEIIEVRSADGSPPYVVRWLVNGHETTVYPGSDAVVVTATEHAEAEKRAAARAGHAAT | soluble
GSHMKITYPLPPNLPEQLPLLTNCQLEDEAILENHLYQQIDLPNQEVRNLVFRDAVFDHLSLANGQFASFDCSNVRFEACDFSNVEWLSGSFHRVTFLRCNLTGTNFADSYLKDCLFEDCKADYASFRFANFNLVHFNQTRLVESEFFEVTWKKLLLEACDLTESNWLNTSLKGLDFSQNTFERLTFSPNYLSGLKVTPEQAIYLASALGLVIT | soluble
GSHMNLKEQLCFSLYNAQRQVNRYYSNKVFKKYNLTYPQFLVLTILWDESPVNVKKVVTELALDTGTVSPLLKRMEQVDLIKRERSEVDQREVFIHLTDKSETIRPELSNASDKVASASSLSQDEVKELNRLLGKVIHAFDE | soluble
GSHMRLDKFIAQQLGVSRAIAGREIRGNRVTVDGEIVRNAAFKLLPEHDVAYDGNPLAQQHGPRYFMLNKPQGYVCSTDDPDHPTVLYFLDEPVAWKLHAAGRLDIDTTGLVLMTDDGQWSHRITSPRHHCEKTYLVTLESPVADDTAEQFAKGVQLHNEKDLTKPAVLEVITPTQVRLTISEGRYHQVKRMFAAVGNHVVELHRERIGGITLDADLAPGEYRPLTEEEIASVV | soluble
GSHMRSRRVDVMDVMNRLILAMDLMNRDDALRVTGEVREYIDTVKIGYPLVLSEGMDIIAEFRKRFGCRIIAAFKVADIPETNEKICRATFKAGADAIIVHGFPGADSVRACLNVAEEMGREVFLLTEMSHPGAEMFIQGAADEIARMGVDLGVKNYVGPSTRPERLSRLREIIGQDSFLISPGVGAQGGDPGETLRFADAIIVGRSIYLADNPAAAAAGIIESIKDLRIPEDPAANKARKEAELAAATAEQ | soluble
GSHMSNAKTKLGITKYSIVTNSNDSVTLRLMTEHDLAMLYEWLNRSHIVEWWGGEEARPTLADVQEQYLPSVLAQESVTPYIAMLNGEPIGYAQSYVALGSGDGWWEEETDPGVRGIDQLLANASQLGKGLGTKLVRALVELLFNDPEVTKIQTDPSPSNLRAIRCYEKAGFERQGTVTTPDGPAVYMVQTRQAFERTRSDA | soluble
GSHVSKREDGRLDHELRPVIITRGFTENPAGSVLIEFGHTKVLCTASVTEGVPRWRKATGLGWLTAEYAMLPSATHSRSDRESVRGRLSGRTQEISRLIGRSLRACIDLAALGENTIAIDCDVLQADGGTRTAAITGAYVALADAVTYLSAAGKLSDPRPLSCAIAAVSVGVVDGRIRVDLPYEEDSRAEVDMNVVATDTGTLVEIQGTGEGATFARSTLDKLLDMALGACDTLFAAQRDALALPYPGVLPQGPPPPKAFGT | soluble
GSKESPLHGTQNTINKRTQPTFGFTVNWKFSESTTVFTGQCFIDRNGKEVLKTMWLLRSSVNDIGDDWKATRVGIMIFTRLRTQKEGGSGGSARKCSLTGKWTNDLGSNMTIGAVNSRGEFTGTYITAVT | soluble
GSLQDNSSYPDEPWRITEEQREYYVNQFRSLQPDPSSFISGSVAKNFFTKSKLSIPELSYIWELSDADCDGALTLPEFCAAFHLIVARKNGYPLPEGLPPTLQPEFIVTD | soluble
GSLYNDGNRDQRNFGRNQRNNNSNRYRNSRFNSRPRTRSREDDDEVHFDKTTFSKLIHVPKEDNSKEVTLDSLLEEGVLDKEIHKAITRMEFPGLTPVQQKTIKPILSSEDHDVIARAKTGTGKTFAFLIPIFQHLINTKFDSQYMVKAVIVAPTRDLALQIEAEVKKIHDMNYGLKKYACVSLVGGTDFRAAMNKMNKLRPNIVIATPGRLIDVLEKYSNKFFRFVDYKVLDEADRLLEIGFRDDLETISGILNEKNSKSADNIKTLLFSATLDDKVQKLANNIMNKKECLFLDTVDKNEPEAHERIDQSVVISEKFANSIFAAVEHIKKQIKERDSNYKAIIFAPTVKFTSFLCSILKNEFKKDLPILEFHGKITQNKRTSLVKRFKKDESGILVCTDVGARGMDFPNVHEVLQIGVPSELANYIHRIGRTARSGKEGSSVLFICKDELPFVRELEDAKNIVIAKQEKYEPSEEIKSEVLEAVTEEPEDISDIVISLISSYRSCIKEYRFSERRILPEIASTYGVLLNDPQLKIPVSRRFLDKLGLSRSPIGKAMFEIRDY | soluble
GSMAEGRGSRERPDVETQKTELGALMGTTLQRGAQWYLIDSRWFKQWKKYVGFDSWDMYNVGEHNLFPGPIDNSGLFSDPESQTLKEHLIDELDYVLVPAEAWNKLLNWYGCVEGQQPIVRKVVEHGLFVKHCKVEVYLLELKLCENSDPTNVLSCHFSKADTIATIEKEMRKLFNIPAERETRLWNKYMSNTYEQLSKLDNTIQDAGLYQGQVLVIEPQNEDGTWPRQSL | soluble
GSMDPSGVKVLETAEDIQERRQQVLDRYHRFKELSTLRRQKLEDSYRFQFFQRDAEELEKWIQEKLQIASDENYKDPTNLQGKLQKHQAFEAEVQANSGAIVKLDETGNLMISEGHFASETIRTRLMELHRQWELLLEKMREKGIKLLQ | soluble
GSMSLPPIRLPSPYGSDRLVQLAARLRPALCDTLITVGSQEFPAHSLVLAGVSQQLGRRGQWALGEGISPSTFAQLLNFVYGESVELQPGELRPLQEAARALGVQSLEEACWRARGDRA | soluble
GSNKLHLRVVTLIEHPFVFTREVDDEGLCPAGQLCLDPMTNDSSMLDRLFSSLHSSNDTVPIKFKKCCYGYCIDLLEQLAEDMNFDFDLYIVGDGKYGAWKNGHWTGLVGDLLSGTANMAVTSFSINTARSQVIDFTSPFFSTSLGILVRTRGTELSGIHDPKLHHPSQGFRFGTVRESSAEDYVRQSFPEMHEYMRRYNVPATPDGVQYLKNDPEKLDAFIMDKALLDYEVSIDADCKLLTVGKPFAIEGYGIGLPPNSPLTSNISELISQYKSHGFMDVLHDKWYKVVPCGK | soluble
GSNSQVWSALQMSKALQDSAPDRPSPVERIVSRDIARGYERIPIPCVNAVDSEPCPSNYKYVSQNCVTSPMNIDRNITHLQYCVCIDDCSSSNCMCGQLSMRCWYDKDGRLLPEFNMAEPPLIFECNHACSCWRNCRNRVVQNGLRARLQLYRTRDMGWGVRSLQDIPPGTFVCEYVGELISDSEADVREEDSYLFDLDNKDGEVYCIDARFYGNVSRFINHHCEPNLVPVRVFMAHQDLRFPRIAFFSTRLIEAGEQLGFDYGERFWDIKGKLFSCRCGSPKCRHS | soluble
GSPGISGGGGGIPVIDGPTQILVRDVSDTVAFVEWTPPRAKVDFILLKYGLVGGEGGKTTFRLQPPLSQYSVQALRPGSRYEVSISAVRGTNESDASSTQFTTEIDAPKNLRVGSRTATSLDLEWDNSEAEAQEYKVVYSTLAGEQYHEVLVPKGIGPTTKTTLTDLVPGTEYGVGISAVMNSKQSIPATMNARTELDSPRDLMVTASSETSISLIWTKASGPIDHYRITFTPSSGISSEVTVPRDRTSYTLTDLEPGAEYIISITAERGRQQSLESTVDAFT | soluble
GSSANDWQCKTCSNVNWARRSECNMCNTPKYAK | soluble
GSSMVTGGMASKWDQKGMDIAYEEALLGYKEGGVPIGGCLINNKDGSVLGRGHNMRFQKGSATLHGEISTLENCGRLEGKVYKDTTLYTTLSPCDMCTGAIIMYGIPRCVIGENVNFKSKGEKYLQTRGHEVVVVDDERCKKLMKQFIDERPQDWFEDIGE | soluble
GVKCEPIEELTINVPEEYSSKIIDMVTRRKGEMTMMENTGERINLEFDMPSRGIIGLRTNVLTASAGEAIMAHRFKEYQPFKGDIERRTNGSIIAMESGTAFAYAIDKLQDRGKFFIFPQEEVYAGQV | not soluble
GWIQELTAGHAEHTPETEEYGISSFVYKRRLPFHSTRFYRWLDQMPKNVVRAKGIVWCASHNNLALLMSQAGPSVTIEPVSYWVAALPKLEQEQVKQQEPEILEEWDPEFGDRLTQLVFIGTDLDEETITKELDQCLLTEYEFDSDWSLFEDPFKWKLNQ | not soluble
